Reference: patent CN113683697A (SHANGHAI XIANGYAO BIOTECHNOLOGY CO LTD, dated 2021)

Columns and labels:
[1] = molecular target: T1, B7-H3 (4Ig-B7-H3) endogenously expressed on MDA-MB-231 cells (UniProt Q5ZPR3 29-534, limits assumed); test: FACS, MDA-MB-231 cells
T1 construct: whole, on cells; also called 细胞表面的B7-H3抗原
T1 sequence (looked up): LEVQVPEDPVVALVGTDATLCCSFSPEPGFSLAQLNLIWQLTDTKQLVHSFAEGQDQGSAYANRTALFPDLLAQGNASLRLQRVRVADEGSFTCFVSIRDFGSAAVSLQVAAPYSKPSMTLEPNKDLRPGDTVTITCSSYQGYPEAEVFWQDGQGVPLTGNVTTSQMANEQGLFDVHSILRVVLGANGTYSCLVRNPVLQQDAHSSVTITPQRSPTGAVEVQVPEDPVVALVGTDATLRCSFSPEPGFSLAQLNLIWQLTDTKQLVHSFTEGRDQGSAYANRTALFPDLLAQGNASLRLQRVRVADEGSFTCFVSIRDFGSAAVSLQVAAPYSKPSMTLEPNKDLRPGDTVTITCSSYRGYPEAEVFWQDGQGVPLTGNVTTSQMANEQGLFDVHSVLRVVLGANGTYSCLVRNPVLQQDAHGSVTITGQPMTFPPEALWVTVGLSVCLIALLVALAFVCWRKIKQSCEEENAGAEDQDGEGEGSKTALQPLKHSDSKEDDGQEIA

[2] = molecular target: T2, 人B7-H3变体1(4Ig-B7-H3) on stable cells 293-h4Ig-B7-H3-copGFP (human, UniProt Q5ZPR3 29-534); test: FACS, 293-h4Ig-B7-H3-copGFP stable cells
T2 construct: Full-length CDS cloned in pCDH-EF1-T2A-copGFP and expressed on stably transduced cells; residues left by T2A cleavage not described
T2 sequence: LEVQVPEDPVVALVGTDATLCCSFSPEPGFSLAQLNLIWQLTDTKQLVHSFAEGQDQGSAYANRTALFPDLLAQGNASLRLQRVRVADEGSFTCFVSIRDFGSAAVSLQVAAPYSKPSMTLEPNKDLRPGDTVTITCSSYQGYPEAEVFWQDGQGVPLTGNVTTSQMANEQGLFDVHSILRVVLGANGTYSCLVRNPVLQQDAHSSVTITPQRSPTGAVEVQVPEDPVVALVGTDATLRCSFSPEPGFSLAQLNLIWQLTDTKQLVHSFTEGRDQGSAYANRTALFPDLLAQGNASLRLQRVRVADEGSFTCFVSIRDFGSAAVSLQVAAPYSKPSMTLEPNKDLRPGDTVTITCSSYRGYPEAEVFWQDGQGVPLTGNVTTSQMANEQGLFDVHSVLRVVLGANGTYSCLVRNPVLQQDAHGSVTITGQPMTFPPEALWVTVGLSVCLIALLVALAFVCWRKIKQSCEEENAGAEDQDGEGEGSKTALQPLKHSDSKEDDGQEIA

B1: scFv-27B4-H1-L1 (scFv)
scFv: QVQLVQSGAEVKKPGASVKVSCKASGYTFTTYWMHWVRQAPGQGLEWMGIIYPGDGGSSYAQKFQGRVTMTRDTSTSTVYMELSSLRSEDTAVYYCARGGNYISFPMYYWGQGTLVTVSSGGGGSGGGGSGGGGSGGGGASDIQMTQSPSSLSASMGDRVTITCKASRGVSTALNWYQQKPGKAPKLLIYWASSLQSGVPSRFSGSGSGTDFTLTISSLQPEDFATYYCQQHYDTPYTFGQGTKLEIK
notes: VH-linker-VL in phage display vector pXY, expressed in TG1, purified on a nickel column
binding result [1]: binds | binding result [2]: binds

B2: scFv-27B4-H1-L2 (scFv)
scFv: QVQLVQSGAEVKKPGASVKVSCKASGYTFTTYWMHWVRQAPGQGLEWMGIIYPGDGGSSYAQKFQGRVTMTRDTSTSTVYMELSSLRSEDTAVYYCARGGNYISFPMYYWGQGTLVTVSSGGGGSGGGGSGGGGSGGGGASVIWMTQSPSLLSASTGDRVTISCKASRGVSTALAWYQQKPGKAPELLIYWASTLQSGVPSRFSGSGSGTDFTLTISCLQSEDFATYYCQQHYDTPYTFGQGTKLEIK
notes: as for B1
binding result [1]: binds | binding result [2]: binds

B3: scFv-27B4-H2-L1 (scFv)
scFv: QVQLVQSGAEVKKPGSSVKVSCKASGYTFTTYWISWVRQAPGQGLEWMGGIYPGDGGSNYAQKFQGRVTITADESTSTAYMELSSLRSEDTAVYYCARGGNYISFPMYYWGQGTLVTVSSGGGGSGGGGSGGGGSGGGGASDIQMTQSPSSLSASMGDRVTITCKASRGVSTALNWYQQKPGKAPKLLIYWASSLQSGVPSRFSGSGSGTDFTLTISSLQPEDFATYYCQQHYDTPYTFGQGTKLEIK
notes: as for B1
binding result [1]: binds | binding result [2]: binds

B4: scFv-27B4-H1-L3 (scFv)
scFv: QVQLVQSGAEVKKPGASVKVSCKASGYTFTTYWMHWVRQAPGQGLEWMGIIYPGDGGSSYAQKFQGRVTMTRDTSTSTVYMELSSLRSEDTAVYYCARGGNYISFPMYYWGQGTLVTVSSGGGGSGGGGSGGGGSGGGGASEIVMTQSPATLSVSPGERATLSCKASRGVSTALAWYQQKPGQAPRLLIYWASTRATGIPARFSGSGSGTEFTLTISSLQSEDFAVYYCQQHYDTPYTFGQGTKLEIK
notes: as for B1
binding result [1]: binds | binding result [2]: binds

B5: scFv-27B4-H2-L3 (scFv)
scFv: QVQLVQSGAEVKKPGSSVKVSCKASGYTFTTYWISWVRQAPGQGLEWMGGIYPGDGGSNYAQKFQGRVTITADESTSTAYMELSSLRSEDTAVYYCARGGNYISFPMYYWGQGTLVTVSSGGGGSGGGGSGGGGSGGGGASEIVMTQSPATLSVSPGERATLSCKASRGVSTALAWYQQKPGQAPRLLIYWASTRATGIPARFSGSGSGTEFTLTISSLQSEDFAVYYCQQHYDTPYTFGQGTKLEIK
notes: Expressed from phage display vector pXY in TG1, purified on a nickel column
binding result [1]: binds | binding result [2]: binds

B6: scFv-27B4-H1-L4 (scFv)
scFv: QVQLVQSGAEVKKPGASVKVSCKASGYTFTTYWMHWVRQAPGQGLEWMGIIYPGDGGSSYAQKFQGRVTMTRDTSTSTVYMELSSLRSEDTAVYYCARGGNYISFPMYYWGQGTLVTVSSGGGGSGGGGSGGGGSGGGGASEIVLTQSPDFQSVTPKEKVTITCKASRGVSTALHWYQQKPDQSPKLLIKWASQSFSGVPSRFSGSGSGTDFTLTINSLEAEDAATYYCQQHYDTPYTFGQGTKLEIK
notes: as for B1
binding result [1]: binds | binding result [2]: binds

B7: scFv-27B4-H2-L4 (scFv)
scFv: QVQLVQSGAEVKKPGSSVKVSCKASGYTFTTYWISWVRQAPGQGLEWMGGIYPGDGGSNYAQKFQGRVTITADESTSTAYMELSSLRSEDTAVYYCARGGNYISFPMYYWGQGTLVTVSSGGGGSGGGGSGGGGSGGGGASEIVLTQSPDFQSVTPKEKVTITCKASRGVSTALHWYQQKPDQSPKLLIKWASQSFSGVPSRFSGSGSGTDFTLTINSLEAEDAATYYCQQHYDTPYTFGQGTKLEIK
notes: as for B1
binding result [1]: binds | binding result [2]: binds

B8: scFv-27B4-H1-L5 (scFv)
scFv: QVQLVQSGAEVKKPGASVKVSCKASGYTFTTYWMHWVRQAPGQGLEWMGIIYPGDGGSSYAQKFQGRVTMTRDTSTSTVYMELSSLRSEDTAVYYCARGGNYISFPMYYWGQGTLVTVSSGGGGSGGGGSGGGGSGGGGASDIVMTQTPLSLSVTPGQPASISCKASRGVSTALYWYLQKPGQPPQLLIYWASNRFSGVPDRFSGSGSGTDFTLKISRVEAEDVGVYYCQQHYDTPYTFGQGTKLEIK
notes: as for B1
binding result [1]: binds | binding result [2]: binds

B9: scFv-27B4-H2-L5 (scFv)
scFv: QVQLVQSGAEVKKPGSSVKVSCKASGYTFTTYWISWVRQAPGQGLEWMGGIYPGDGGSNYAQKFQGRVTITADESTSTAYMELSSLRSEDTAVYYCARGGNYISFPMYYWGQGTLVTVSSGGGGSGGGGSGGGGSGGGGASDIVMTQTPLSLSVTPGQPASISCKASRGVSTALYWYLQKPGQPPQLLIYWASNRFSGVPDRFSGSGSGTDFTLKISRVEAEDVGVYYCQQHYDTPYTFGQGTKLEIK
notes: as for B1
binding result [1]: binds | binding result [2]: binds

B10: scFv-27B4-H2-L2 (scFv)
scFv: QVQLVQSGAEVKKPGSSVKVSCKASGYTFTTYWISWVRQAPGQGLEWMGGIYPGDGGSNYAQKFQGRVTITADESTSTAYMELSSLRSEDTAVYYCARGGNYISFPMYYWGQGTLVTVSSGGGGSGGGGSGGGGSGGGGASVIWMTQSPSLLSASTGDRVTISCKASRGVSTALAWYQQKPGKAPELLIYWASTLQSGVPSRFSGSGSGTDFTLTISCLQSEDFATYYCQQHYDTPYTFGQGTKLEIK
notes: as for B5
binding result [1]: binds | binding result [2]: binds

B11: scFv-27B4-H3-L1 (scFv)
scFv: QVQLVQSGSELKKPGASVKVSCKASGYTFTTYWMNWVRQAPGQGLEWMGWIYPGDGGSTYAQGFTGRFVFSLDTSVSTAYLQICSLKAEDTAVYYCARGGNYISFPMYYWGQGTLVTVSSGGGGSGGGGSGGGGSGGGGASDIQMTQSPSSLSASMGDRVTITCKASRGVSTALNWYQQKPGKAPKLLIYWASSLQSGVPSRFSGSGSGTDFTLTISSLQPEDFATYYCQQHYDTPYTFGQGTKLEIK
notes: as for B1
binding result [1]: binds | binding result [2]: binds

B12: scFv-27B4-H3-L2 (scFv)
scFv: QVQLVQSGSELKKPGASVKVSCKASGYTFTTYWMNWVRQAPGQGLEWMGWIYPGDGGSTYAQGFTGRFVFSLDTSVSTAYLQICSLKAEDTAVYYCARGGNYISFPMYYWGQGTLVTVSSGGGGSGGGGSGGGGSGGGGASVIWMTQSPSLLSASTGDRVTISCKASRGVSTALAWYQQKPGKAPELLIYWASTLQSGVPSRFSGSGSGTDFTLTISCLQSEDFATYYCQQHYDTPYTFGQGTKLEIK
notes: as for B1
binding result [1]: binds | binding result [2]: binds

B13: scFv-27B4-H3-L3 (scFv)
scFv: QVQLVQSGSELKKPGASVKVSCKASGYTFTTYWMNWVRQAPGQGLEWMGWIYPGDGGSTYAQGFTGRFVFSLDTSVSTAYLQICSLKAEDTAVYYCARGGNYISFPMYYWGQGTLVTVSSGGGGSGGGGSGGGGSGGGGASEIVMTQSPATLSVSPGERATLSCKASRGVSTALAWYQQKPGQAPRLLIYWASTRATGIPARFSGSGSGTEFTLTISSLQSEDFAVYYCQQHYDTPYTFGQGTKLEIK
notes: as for B1
binding result [1]: binds | binding result [2]: binds

B14: scFv-27B4-H3-L4 (scFv)
scFv: QVQLVQSGSELKKPGASVKVSCKASGYTFTTYWMNWVRQAPGQGLEWMGWIYPGDGGSTYAQGFTGRFVFSLDTSVSTAYLQICSLKAEDTAVYYCARGGNYISFPMYYWGQGTLVTVSSGGGGSGGGGSGGGGSGGGGASEIVLTQSPDFQSVTPKEKVTITCKASRGVSTALHWYQQKPDQSPKLLIKWASQSFSGVPSRFSGSGSGTDFTLTINSLEAEDAATYYCQQHYDTPYTFGQGTKLEIK
notes: as for B1
binding result [1]: binds | binding result [2]: binds
